The Human Domainome abundance scans (Beltran et al. 2025)
± gives the uncertainty stated by the source.

B1: Unconventional myosin-Ie, residues 1051 to 1108; numbered along this chain, Q12965 (parent)
chain: PQVPQCKALYAYDAQDTDELSFNANDIIDIIKEDPSGWWTGRLRGKQGLFPNNYVTKI

Variants of: B1
Test: abundance fitness (aPCA) (normalised: wild type 0, dead -1); higher = more abundant; growth selection in yeast, the domain comes from the species named
Conditions: Homo sapiens
T40Y showed an abundance fitness of -0.07 ± 0.041.
With T40I the abundance fitness was -0.059 ± 0.054.
Work on T40V yielded an abundance fitness of 0.125 ± 0.075.
Variant N25M has an abundance fitness of -0.151 ± 0.051.
Variant N25I has an abundance fitness of -0.833 ± 0.075.
With N25D the abundance fitness was -0.048 ± 0.068.
Variant N25Q has an abundance fitness of -0.058 ± 0.054.
N25W showed an abundance fitness of -0.224 ± 0.056.
N25V showed an abundance fitness of -0.753 ± 0.073.
Work on E19S yielded an abundance fitness of -0.159 ± 0.054.
For E19K, the abundance fitness was -0.136 ± 0.073.
E19A showed an abundance fitness of -0.288 ± 0.069.
With E19V the abundance fitness was -0.382 ± 0.06.
With E19T the abundance fitness was -0.132 ± 0.066.
With E19R the abundance fitness was -0.189 ± 0.038.
In the case of E19Q, the abundance fitness is reported as -0.125 ± 0.079.
In the case of E19I, the abundance fitness is reported as -0.548 ± 0.22.
Variant E19M has an abundance fitness of -0.055 ± 0.076.
Work on P1K yielded an abundance fitness of 0.169 ± 0.23.
In the case of P1D, the abundance fitness is reported as -0.164 ± 0.2.
Work on P1E yielded an abundance fitness of -0.144 ± 0.16.
P1W gave an abundance fitness of -0.237 ± 0.11.
Work on P35N yielded an abundance fitness of -0.115 ± 0.058.
P35L gave an abundance fitness of -0.29 ± 0.065.
P35G showed an abundance fitness of -0.021 ± 0.041.
For P35K, the abundance fitness was -0.027 ± 0.049.
P35D gave an abundance fitness of -0.023 ± 0.051.
For P35I, the abundance fitness was -0.144 ± 0.081.
With P35V the abundance fitness was -0.085 ± 0.051.
Work on P35H yielded an abundance fitness of -0.623 ± 0.24.
With Y10W the abundance fitness was -0.092 ± 0.065.
In the case of Y10V, the abundance fitness is reported as -0.121 ± 0.04.
For Y10T, the abundance fitness was -0.218 ± 0.055.
Y10P showed an abundance fitness of -0.821 ± 0.2.
In the case of Y10K, the abundance fitness is reported as -0.043 ± 0.058.
Y10N showed an abundance fitness of -0.472 ± 0.1.
With Y10R the abundance fitness was 0.056 ± 0.036.
Work on Y10C yielded an abundance fitness of -0.14 ± 0.058.
With Q15R the abundance fitness was -0.035 ± 0.03.
Work on Q15M yielded an abundance fitness of -0.059 ± 0.064.
With Q15D the abundance fitness was -0.145 ± 0.087.
Q15K showed an abundance fitness of -0.186 ± 0.11.
Variant Q15W has an abundance fitness of -0.408 ± 0.037.
With N23A the abundance fitness was -0.01 ± 0.031.
For N23W, the abundance fitness was -0.38 ± 0.054.
N23H gave an abundance fitness of -0.048 ± 0.032.
Work on N23Q yielded an abundance fitness of -0.002 ± 0.04.
In the case of N23C, the abundance fitness is reported as -0.062 ± 0.033.
N23K showed an abundance fitness of -0.008 ± 0.045.
With F22N the abundance fitness was -0.816 ± 0.28.
With F22P the abundance fitness was -0.834 ± 0.26.
Variant F22H has an abundance fitness of -0.727 ± 0.27.
Work on F22V yielded an abundance fitness of -0.472 ± 0.079.
Work on F22T yielded an abundance fitness of -0.793 ± 0.21.
In the case of F22G, the abundance fitness is reported as -0.954 ± 0.095.
T17G showed an abundance fitness of -0.057 ± 0.044.
In the case of T17Y, the abundance fitness is reported as -0.238 ± 0.088.
For T17P, the abundance fitness was -0.273 ± 0.092.
T17F showed an abundance fitness of -0.287 ± 0.097.
T17K showed an abundance fitness of -0.18 ± 0.082.
With T17M the abundance fitness was -0.043 ± 0.043.
In the case of G41V, the abundance fitness is reported as -0.9 ± 0.15.
With G41K the abundance fitness was -1.03 ± 0.28.
In the case of G41D, the abundance fitness is reported as -0.899 ± 0.11.
Variant G41Y has an abundance fitness of -0.88 ± 0.45.
Variant G41Q has an abundance fitness of -0.767 ± 0.23.
Variant N52L has an abundance fitness of -0.027 ± 0.048.
N52C gave an abundance fitness of -0.515 ± 0.23.
N52T showed an abundance fitness of -0.087 ± 0.042.
N52G gave an abundance fitness of 0.02 ± 0.032.
In the case of N52K, the abundance fitness is reported as -0.284 ± 0.14.
In the case of N52A, the abundance fitness is reported as 0.03 ± 0.049.
Variant N52Q has an abundance fitness of -0.197 ± 0.096.
In the case of N52I, the abundance fitness is reported as -0.123 ± 0.093.
In the case of N52W, the abundance fitness is reported as -0.053 ± 0.041.
N52S showed an abundance fitness of 0.024 ± 0.048.
In the case of N52E, the abundance fitness is reported as 0.019 ± 0.062.
For N52M, the abundance fitness was -0.231 ± 0.055.
With K57W the abundance fitness was -0.554 ± 0.065.
For K57L, the abundance fitness was -0.442 ± 0.098.
K57Q gave an abundance fitness of -0.315 ± 0.048.
In the case of K57M, the abundance fitness is reported as -0.34 ± 0.088.
K57N gave an abundance fitness of -0.143 ± 0.11.
Work on K57A yielded an abundance fitness of -0.337 ± 0.05.
In the case of K57E, the abundance fitness is reported as -0.266 ± 0.068.
Q2E gave an abundance fitness of -0.193 ± 0.079.
Work on Q2W yielded an abundance fitness of -0.12 ± 0.05.
With Q2M the abundance fitness was 0.153 ± 0.061.
With Q2D the abundance fitness was 0.01 ± 0.091.
Q2C showed an abundance fitness of -0.193 ± 0.13.
Work on Q2R yielded an abundance fitness of -0.317 ± 0.042.
For Q2F, the abundance fitness was -0.597 ± 0.46.
For E33K, the abundance fitness was -0.368 ± 0.14.
E33Q gave an abundance fitness of 0.074 ± 0.087.
With E33W the abundance fitness was -0.819 ± 0.21.
Variant E33D has an abundance fitness of -0.271 ± 0.05.
For E33P, the abundance fitness was -0.751 ± 0.21.
E33N gave an abundance fitness of -0.576 ± 0.049.
E33G showed an abundance fitness of -0.935 ± 0.14.
For I30C, the abundance fitness was -0.378 ± 0.04.
I30W showed an abundance fitness of -0.967 ± 0.14.
For I30E, the abundance fitness was -0.864 ± 0.069.
With I30T the abundance fitness was -0.745 ± 0.16.
G48R showed an abundance fitness of -0.646 ± 0.081.
W38L showed an abundance fitness of -0.211 ± 0.3.
K32I gave an abundance fitness of 0.028 ± 0.052.
K32Q gave an abundance fitness of -0.139 ± 0.078.
Work on K32H yielded an abundance fitness of 0.047 ± 0.077.
K32L gave an abundance fitness of -0.122 ± 0.038.
Variant K32C has an abundance fitness of -0.14 ± 0.051.
With K32E the abundance fitness was 0.013 ± 0.064.
With A11G the abundance fitness was -0.186 ± 0.055.
Work on A11C yielded an abundance fitness of -0.193 ± 0.1.
With A11L the abundance fitness was -0.308 ± 0.056.
A11N showed an abundance fitness of 0.022 ± 0.17.
A11P showed an abundance fitness of 0.019 ± 0.062.
R42H showed an abundance fitness of -0.15 ± 0.1.
R42G showed an abundance fitness of -0.125 ± 0.058.
Variant R42N has an abundance fitness of -0.005 ± 0.065.
In the case of R42M, the abundance fitness is reported as -0.394 ± 0.14.
With R42Q the abundance fitness was -0.028 ± 0.038.
R42A gave an abundance fitness of -0.013 ± 0.039.
Work on R42Y yielded an abundance fitness of -0.366 ± 0.16.
I58L showed an abundance fitness of -0.091 ± 0.078.
Variant I58Y has an abundance fitness of -0.299 ± 0.2.
For I58D, the abundance fitness was -0.089 ± 0.25.
I58H gave an abundance fitness of -0.333 ± 0.2.
I58G showed an abundance fitness of -0.456 ± 0.24.
With L20N the abundance fitness was -0.764 ± 0.35.
Work on L20S yielded an abundance fitness of -0.879 ± 0.14.
Work on L20G yielded an abundance fitness of -1.03 ± 0.11.
L20D showed an abundance fitness of -0.893 ± 0.17.
L20Q showed an abundance fitness of -1.12 ± 0.15.
For L20T, the abundance fitness was -1.04 ± 0.22.
With L20K the abundance fitness was -0.836 ± 0.13.
Work on K46L yielded an abundance fitness of -0.152 ± 0.066.
In the case of K46V, the abundance fitness is reported as -0.051 ± 0.063.
Y12M gave an abundance fitness of -0.761 ± 0.15.
In the case of Y12W, the abundance fitness is reported as -0.15 ± 0.039.
Work on Y12F yielded an abundance fitness of -0.377 ± 0.13.
Y12K showed an abundance fitness of -0.54 ± 0.12.
Variant Y12L has an abundance fitness of -0.892 ± 0.08.
In the case of Y12C, the abundance fitness is reported as -0.968 ± 0.086.
In the case of Y12E, the abundance fitness is reported as -0.396 ± 0.12.
Y12G showed an abundance fitness of -0.937 ± 0.072.
Y12A gave an abundance fitness of -0.803 ± 0.096.
With Y12V the abundance fitness was -0.891 ± 0.047.
Y12I gave an abundance fitness of -0.966 ± 0.31.
C6A showed an abundance fitness of 0.097 ± 0.035.
Work on C6I yielded an abundance fitness of -0.67 ± 0.46.
C6W gave an abundance fitness of -0.571 ± 0.072.
Variant C6S has an abundance fitness of -0.448 ± 0.085.
Work on C6M yielded an abundance fitness of -0.172 ± 0.12.
Work on D16N yielded an abundance fitness of -0.052 ± 0.052.
In the case of D16K, the abundance fitness is reported as -0.069 ± 0.07.
With D16E the abundance fitness was -0.097 ± 0.053.
Variant D16M has an abundance fitness of -0.098 ± 0.054.
D16A gave an abundance fitness of -0.055 ± 0.058.
D16W showed an abundance fitness of -0.231 ± 0.049.
A24M showed an abundance fitness of -0.034 ± 0.074.
A24W gave an abundance fitness of -0.481 ± 0.077.
A24E gave an abundance fitness of -0.052 ± 0.054.
For A24I, the abundance fitness was -0.04 ± 0.061.
In the case of A24T, the abundance fitness is reported as -0.012 ± 0.041.
With A24Y the abundance fitness was -0.528 ± 0.18.
Work on A24D yielded an abundance fitness of -0.477 ± 0.15.
A24K showed an abundance fitness of -0.04 ± 0.045.
